Laboratory results as given in paper PMC10786891, “Massively parallel profiling of RNA-targeting CRISPR-Cas13d”.

T1: EsCas13d, nuclease-dead (Eubacterium siraeum, UniProt B0MS50, R295A;H300A;R849A;H854A)
T1 sequence: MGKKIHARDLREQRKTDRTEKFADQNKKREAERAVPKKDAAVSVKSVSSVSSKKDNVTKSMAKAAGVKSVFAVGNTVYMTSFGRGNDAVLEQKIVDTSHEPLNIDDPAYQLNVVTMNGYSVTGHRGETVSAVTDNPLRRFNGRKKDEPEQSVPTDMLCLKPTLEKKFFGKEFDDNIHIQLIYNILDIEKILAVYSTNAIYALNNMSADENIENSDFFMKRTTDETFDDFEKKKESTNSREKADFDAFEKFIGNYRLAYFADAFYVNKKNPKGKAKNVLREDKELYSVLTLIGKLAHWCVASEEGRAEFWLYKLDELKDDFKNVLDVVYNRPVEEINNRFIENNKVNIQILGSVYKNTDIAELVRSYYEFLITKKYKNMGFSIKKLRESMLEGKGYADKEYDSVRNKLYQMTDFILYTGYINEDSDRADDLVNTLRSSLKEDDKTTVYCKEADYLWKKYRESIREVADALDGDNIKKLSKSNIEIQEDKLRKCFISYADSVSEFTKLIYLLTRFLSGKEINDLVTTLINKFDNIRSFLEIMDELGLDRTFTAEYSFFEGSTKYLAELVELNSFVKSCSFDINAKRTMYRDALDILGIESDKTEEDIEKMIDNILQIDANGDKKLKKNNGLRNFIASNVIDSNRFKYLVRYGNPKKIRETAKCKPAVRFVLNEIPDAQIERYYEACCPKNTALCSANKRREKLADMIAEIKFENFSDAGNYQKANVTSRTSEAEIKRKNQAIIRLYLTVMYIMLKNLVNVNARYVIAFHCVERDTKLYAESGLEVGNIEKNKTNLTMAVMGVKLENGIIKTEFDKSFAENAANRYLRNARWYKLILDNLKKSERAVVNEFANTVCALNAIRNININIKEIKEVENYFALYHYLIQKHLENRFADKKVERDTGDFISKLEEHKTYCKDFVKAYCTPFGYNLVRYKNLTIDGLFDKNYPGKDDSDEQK

B1: target 1 insC 3' of 15,insC 3' of 11 (mixed)
RNA 1: CACCCGUGCAAAAAUGCAGGGGUCUAAAACUGAGCGGAUAACCUCUCUAUGG
RNA 2: GGGAAUGGAUCCACAUCUACGAAUUCGUACCAUAGAGCAGGUCUAUCCGCUCACCGAGAUCGGAAGAGCACACGU
B2: target 1 insC 3' of 20,insC 3' of 8 (mixed)
RNA 1: CACCCGUGCAAAAAUGCAGGGGUCUAAAACUGAGCGGAUAACCUCUCUAUGG
RNA 2: GGGAAUGGAUCCACAUCUACGAAUUCGUACCACUAGAGAGGUUAUCCCGCUCACCGAGAUCGGAAGAGCACACGU
B3: target 1 C2U,C7G (mixed)
RNA 1: CACCCGUGCAAAAAUGCAGGGGUCUAAAACUGAGCGGAUAACCUCUCUAUGG
RNA 2: GGGAAUGGAUCCACAUCUACGAAUUCGUACCAUAGAGAGGUUAUGCGCUUACCGAGAUCGGAAGAGCACACGU
B4: target 1 insU 3' of 4,insC 3' of 1 (mixed)
RNA 1: CACCCGUGCAAAAAUGCAGGGGUCUAAAACUGAGCGGAUAACCUCUCUAUGG
RNA 2: GGGAAUGGAUCCACAUCUACGAAUUCGUACCAUAGAGAGGUUAUCCGCUUCACCCGAGAUCGGAAGAGCACACGU
B5: target 1 insG 3' of 3,insU 3' of 2 (mixed)
RNA 1: CACCCGUGCAAAAAUGCAGGGGUCUAAAACUGAGCGGAUAACCUCUCUAUGG
RNA 2: GGGAAUGGAUCCACAUCUACGAAUUCGUACCAUAGAGAGGUUAUCCGCUGCUACCGAGAUCGGAAGAGCACACGU
B6: target 1 insA 3' of 11,insA 3' of 7 (mixed)
RNA 1: CACCCGUGCAAAAAUGCAGGGGUCUAAAACUGAGCGGAUAACCUCUCUAUGG
RNA 2: GGGAAUGGAUCCACAUCUACGAAUUCGUACCAUAGAGAGGUAUAUCACGCUCACCGAGAUCGGAAGAGCACACGU
B7: target 1 insU 3' of 20,insU 3' of 15 (mixed)
RNA 1: CACCCGUGCAAAAAUGCAGGGGUCUAAAACUGAGCGGAUAACCUCUCUAUGG
RNA 2: GGGAAUGGAUCCACAUCUACGAAUUCGUACCAUUAGAGUAGGUUAUCCGCUCACCGAGAUCGGAAGAGCACACGU
B8: target 1 insU 3' of 13,insU 3' of 4 (mixed)
RNA 1: CACCCGUGCAAAAAUGCAGGGGUCUAAAACUGAGCGGAUAACCUCUCUAUGG
RNA 2: GGGAAUGGAUCCACAUCUACGAAUUCGUACCAUAGAGAGUGUUAUCCGCUUCACCGAGAUCGGAAGAGCACACGU
B9: target 1 insA 3' of 8,insG 3' of 8 (mixed)
RNA 1: CACCCGUGCAAAAAUGCAGGGGUCUAAAACUGAGCGGAUAACCUCUCUAUGG
RNA 2: GGGAAUGGAUCCACAUCUACGAAUUCGUACCAUAGAGAGGUUAUAGCCGCUCACCGAGAUCGGAAGAGCACACGU
B10: target 1 insC 3' of 22,insG 3' of 3 (mixed)
RNA 1: CACCCGUGCAAAAAUGCAGGGGUCUAAAACUGAGCGGAUAACCUCUCUAUGG
RNA 2: GGGAAUGGAUCCACAUCUACGAAUUCGUACCCAUAGAGAGGUUAUCCGCUGCACCGAGAUCGGAAGAGCACACGU
B11: target 1 insA 3' of 19,insA 3' of 19 (mixed)
RNA 1: CACCCGUGCAAAAAUGCAGGGGUCUAAAACUGAGCGGAUAACCUCUCUAUGG
RNA 2: GGGAAUGGAUCCACAUCUACGAAUUCGUACCAUAAAGAGAGGUUAUCCGCUCACCGAGAUCGGAAGAGCACACGU
B12: target 1 insC 3' of 8,insU 3' of 6 (mixed)
RNA 1: CACCCGUGCAAAAAUGCAGGGGUCUAAAACUGAGCGGAUAACCUCUCUAUGG
RNA 2: GGGAAUGGAUCCACAUCUACGAAUUCGUACCAUAGAGAGGUUAUCCCUGCUCACCGAGAUCGGAAGAGCACACGU
B13: target 1 insG 3' of 19,insU 3' of 12 (mixed)
RNA 1: CACCCGUGCAAAAAUGCAGGGGUCUAAAACUGAGCGGAUAACCUCUCUAUGG
RNA 2: GGGAAUGGAUCCACAUCUACGAAUUCGUACCAUGAGAGAGGUUUAUCCGCUCACCGAGAUCGGAAGAGCACACGU
B14: target 1 insC 3' of 19,insA 3' of 7 (mixed)
RNA 1: CACCCGUGCAAAAAUGCAGGGGUCUAAAACUGAGCGGAUAACCUCUCUAUGG
RNA 2: GGGAAUGGAUCCACAUCUACGAAUUCGUACCAUCAGAGAGGUUAUCACGCUCACCGAGAUCGGAAGAGCACACGU
B15: target 1 A1G,G15C (mixed)
RNA 1: CACCCGUGCAAAAAUGCAGGGGUCUAAAACUGAGCGGAUAACCUCUCUAUGG
RNA 2: GGGAAUGGAUCCACAUCUACGAAUUCGUACCAUAGACAGGUUAUCCGCUCGCCGAGAUCGGAAGAGCACACGU
B16: target 1 insU 3' of 15,insA 3' of 10 (mixed)
RNA 1: CACCCGUGCAAAAAUGCAGGGGUCUAAAACUGAGCGGAUAACCUCUCUAUGG
RNA 2: GGGAAUGGAUCCACAUCUACGAAUUCGUACCAUAGAGUAGGUUAAUCCGCUCACCGAGAUCGGAAGAGCACACGU
B17: target 1 insA 3' of 17,insC 3' of 17 (mixed)
RNA 1: CACCCGUGCAAAAAUGCAGGGGUCUAAAACUGAGCGGAUAACCUCUCUAUGG
RNA 2: GGGAAUGGAUCCACAUCUACGAAUUCGUACCAUAGACAGAGGUUAUCCGCUCACCGAGAUCGGAAGAGCACACGU
B18: target 1 insG 3' of 14,insA 3' of 11 (mixed)
RNA 1: CACCCGUGCAAAAAUGCAGGGGUCUAAAACUGAGCGGAUAACCUCUCUAUGG
RNA 2: GGGAAUGGAUCCACAUCUACGAAUUCGUACCAUAGAGAGGGUAUAUCCGCUCACCGAGAUCGGAAGAGCACACGU
B19: target 1 insG 3' of 16,insC 3' of 5 (mixed)
RNA 1: CACCCGUGCAAAAAUGCAGGGGUCUAAAACUGAGCGGAUAACCUCUCUAUGG
RNA 2: GGGAAUGGAUCCACAUCUACGAAUUCGUACCAUAGAGGAGGUUAUCCGCCUCACCGAGAUCGGAAGAGCACACGU
B20: target 1 G5U,G13U (mixed)
RNA 1: CACCCGUGCAAAAAUGCAGGGGUCUAAAACUGAGCGGAUAACCUCUCUAUGG
RNA 2: GGGAAUGGAUCCACAUCUACGAAUUCGUACCAUAGAGAUGUUAUCCUCUCACCGAGAUCGGAAGAGCACACGU
B21: target 1 U11G,G12C (mixed)
RNA 1: CACCCGUGCAAAAAUGCAGGGGUCUAAAACUGAGCGGAUAACCUCUCUAUGG
RNA 2: GGGAAUGGAUCCACAUCUACGAAUUCGUACCAUAGAGAGCGUAUCCGCUCACCGAGAUCGGAAGAGCACACGU
B22: target 1 insC 3' of 22,insA 3' of 2 (mixed)
RNA 1: CACCCGUGCAAAAAUGCAGGGGUCUAAAACUGAGCGGAUAACCUCUCUAUGG
RNA 2: GGGAAUGGAUCCACAUCUACGAAUUCGUACCCAUAGAGAGGUUAUCCGCUCAACCGAGAUCGGAAGAGCACACGU
B23: target 1 insG 3' of 14,insU 3' of 12 (mixed)
RNA 1: CACCCGUGCAAAAAUGCAGGGGUCUAAAACUGAGCGGAUAACCUCUCUAUGG
RNA 2: GGGAAUGGAUCCACAUCUACGAAUUCGUACCAUAGAGAGGGUUUAUCCGCUCACCGAGAUCGGAAGAGCACACGU
B24: target 1 U11C,G12A (mixed)
RNA 1: CACCCGUGCAAAAAUGCAGGGGUCUAAAACUGAGCGGAUAACCUCUCUAUGG
RNA 2: GGGAAUGGAUCCACAUCUACGAAUUCGUACCAUAGAGAGACUAUCCGCUCACCGAGAUCGGAAGAGCACACGU
B25: target 1 insC 3' of 8,insC 3' of 5 (mixed)
RNA 1: CACCCGUGCAAAAAUGCAGGGGUCUAAAACUGAGCGGAUAACCUCUCUAUGG
RNA 2: GGGAAUGGAUCCACAUCUACGAAUUCGUACCAUAGAGAGGUUAUCCCGCCUCACCGAGAUCGGAAGAGCACACGU
B26: target 1 insA 3' of 22,insG 3' of 19 (mixed)
RNA 1: CACCCGUGCAAAAAUGCAGGGGUCUAAAACUGAGCGGAUAACCUCUCUAUGG
RNA 2: GGGAAUGGAUCCACAUCUACGAAUUCGUACACAUGAGAGAGGUUAUCCGCUCACCGAGAUCGGAAGAGCACACGU
B27: target 1 insU 3' of 20,insU 3' of 6 (mixed)
RNA 1: CACCCGUGCAAAAAUGCAGGGGUCUAAAACUGAGCGGAUAACCUCUCUAUGG
RNA 2: GGGAAUGGAUCCACAUCUACGAAUUCGUACCAUUAGAGAGGUUAUCCUGCUCACCGAGAUCGGAAGAGCACACGU
B28: target 1 insA 3' of 22,insG 3' of 1 (mixed)
RNA 1: CACCCGUGCAAAAAUGCAGGGGUCUAAAACUGAGCGGAUAACCUCUCUAUGG
RNA 2: GGGAAUGGAUCCACAUCUACGAAUUCGUACACAUAGAGAGGUUAUCCGCUCAGCCGAGAUCGGAAGAGCACACGU

These binders were tested against T1, EsCas13d, nuclease-dead (assay: crRNA (strand 1, pre-loaded); Mg2+; 40 mM Tris-HCl pH 7.5, 150 mM NaCl, 6 mM MgCl2, 1 mM DTT, 0.1% Tween-20, 0.2 mg/ml BSA; 25 C; 10 min per concentration, then washed). Settings: tags: His6-TwinStrep-SUMO cleaved; N-terminal SNAP kept (SNAP-Surface 488); label: 3' end held by stalled T7 RNA polymerase.

In order of rising Kd:
1. B3  8.54 ± 0.22 nM
2. B24  8.9 ± 0.4 nM
3. B5  10.1 ± 0.4 nM
4. B10  11 ± 0.7 nM
5. B28  11.2 ± 0.4 nM
6. B6  14.3 ± 0.7 nM
7. B25  14.6 ± 0.7 nM
8. B2  15.2 ± 1.7 nM
9. B27  15.4 ± 0.6 nM
10. B23  16.4 ± 2.4 nM
11. B4  16.8 ± 1.8 nM
12. B21  17 ± 1 nM
13. B7  19.1 ± 1.6 nM
14. B16  20.2 ± 1.1 nM
15. B8  21 ± 2.6 nM
16. B12  21.1 ± 1.5 nM
17. B11  22.1 ± 2.4 nM
18. B22  24 ± 4 nM
19. B14  26.6 ± 2.4 nM
20. B9  33.1 ± 2.6 nM
21. B1  36.9 ± 3.4 nM
22. B18  39.2 ± 2.6 nM
23. B17  41.4 ± 2.9 nM
24. B13  48 ± 5 nM
25. B26  51 ± 7 nM
26. B19  52 ± 5 nM
27. B15  58 ± 9 nM
28. B20  64 ± 8 nM
